± gives the uncertainty stated by the source.

The nature of the data set: amyloid nucleation score (Sup35N fusion, yeast selection) (log enrichment); library NNK1; higher = more nucleation; inactive = no reads after selection. In outline:
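Using DiMSum, nucleation scores were taken as the log enrichment of output over input reads, centred on the mode score of non-aggregating sequences. The input and output reads came from Illumina sequencing of plasmid inserts, with sequences under 100 input reads excluded. The yeast were psi-negative, expressed Sup35N fused to peptides of 20 random codons, were induced with 100 μM copper sulfate for 24 hours, and were grown 7 days at 30°C on medium lacking adenine and uracil.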
For the substance KFLRGYSCNVRSRPTRDRSV, the amyloid nucleation score result was “inactive”.
As for KFRRLQARFASMMSSTFT, the amyloid nucleation score amounted to 1.82 ± 0.14.
As to KFSGWHLHGDLCRIHALEVW, the amyloid nucleation score amounted to 0.457 ± 0.27.
As for KFWTGPIRYVN, the amyloid nucleation score was -0.149 ± 0.31.
The substance KGYGRFMSFF showed an amyloid nucleation score of -0.697 ± 0.4.
KGYLLRWLGEVYFVNYGSNS registered an amyloid nucleation score of -0.585 ± 0.84.
As for KILVVGHRESIMCTDSYIMW, the figure is -0.294 ± 0.59; as for KISCIISWLYDFIIKLAFFT, -0.931 ± 0.68; as for KIVCLKFYVIDMRSMLTVVS, 2.54 ± 0.088.
Next, KIVSEFCL: 0.36 ± 0.36; KKDSTYSRSRLDPFRLSVSV: -0.14 ± 0.5.
KKFFKYELFEVCIFLGYRCS had an amyloid nucleation score of 0.493 ± 1.2.
Substance KKGLLIVVVAHSERYVVDIA returned an amyloid nucleation score of -0.547 ± 0.44.
Turning to KKMRGTFIRFIYRLFFLRYA, the amyloid nucleation score was 0.656 ± 0.5.
As to KLFGTAYS, the amyloid nucleation score is -0.847 ± 0.96.
For the substance KLFSK, the amyloid nucleation score result was “inactive”.
In turn, KLIVWDKCSTCHSDVVLLFK displayed an amyloid nucleation score of 0.734 ± 0.97.
On to KLKQVCPLTPVSRVSEQGKK, for which the amyloid nucleation score is -0.441 ± 1.1.
In the case of KLLPYMYCHYN, the amyloid nucleation score was 1.27 ± 0.39.
For KLLVLLNN, the amyloid nucleation score result was “inactive”.
Substance KLLWSPYSGCVVYNIKVKGR had an amyloid nucleation score of 3.67 ± 0.13.
Next, KLNLKFYAFYNM: 5.49 ± 0.073; KLPIAGCYRVINCTVRGE: -0.008 ± 0.26.
Substance KLQLVSLWQ came in with an amyloid nucleation score of 2.77 ± 0.11.
As to KLSDSSLTKCRYSHFYRSSM, the amyloid nucleation score was -1.99 ± 2.4.
Next, KLTCRDSRFVRAIFVMSKSA: -0.458 ± 0.3; KLVLSYRYNDG: 2.17 ± 0.18.
With KLVTAPISKSLF, the amyloid nucleation score was 0.55 ± 0.92.
For the substance KMKLRHTSCRFSREVTDVY, the amyloid nucleation score was 0.614 ± 0.32.
Take KMLVSDTNGESSPLL: the amyloid nucleation score is 0.124 ± 0.39.
Take KNDNAYCGWSWLLLTDSVHF: the amyloid nucleation score is -0.836 ± 0.42.
KNDVASLLLGSMLKANSTCC had an amyloid nucleation score of 0.413 ± 1.4.
In turn, KNFDHVKDHIVFQVL returned an amyloid nucleation score of -1.27 ± 1.
With KNFRRYWGPSLIEIG, the amyloid nucleation score was 1.13 ± 0.85.
Regarding KNKGCGGKAEYTLAPIEISM, the amyloid nucleation score amounted to 0.364 ± 0.55.
KNNVDSKHS yielded an amyloid nucleation score of 0.021 ± 0.52.
Regarding KNVSRVCV, the amyloid nucleation score entry was “inactive”.
KPLILLCHLMGTMSTKCKDM displayed an amyloid nucleation score of -0.098 ± 0.26.
As for KREFQCWTSACFFDISSAEL, the amyloid nucleation score worked out at 0.34 ± 0.79.
KRRGSFKVLYSHSVGLYQSF gave an amyloid nucleation score of 2.79 ± 0.14.
With KRRVSLCMPWVGSDRRVFMG, the amyloid nucleation score came to 0.377 ± 0.31.
As for KRSRYSKR, the amyloid nucleation score is 0.103 ± 0.48.
Turning to KRTHSTLHK, the amyloid nucleation score was determined as 0.36 ± 0.38.
In turn, KSCTCRNSSYRYVHINLARY registered an amyloid nucleation score of -0.253 ± 0.6.
As for KSGDMWW, the figure is 0.087 ± 0.37; as for KSGTAFLFFKMI, 0.399 ± 0.31; as for KSQCWRSGLVLFNA, -0.243 ± 0.36.
As for KTCWTILSVLLTLK, the figure is 0.489 ± 0.58; as for KTGARYSLSACYLTRTDYHW, 0.056 ± 0.43; as for KTHQLTSRTEWLYGVGVSAQ, -1.78 ± 2.4.
Substance KTLFMITYFGL displayed an amyloid nucleation score of 0.85 ± 0.26.
Next, KTRLSWYWKITCLLHSMKFS: -0.12 ± 0.4; KTRNCTNFWLQRGTW: -0.28 ± 0.76.
Substance KTSFSCSIRSSYVDWGLGDS showed an amyloid nucleation score of 2.66 ± 0.12.
In the case of KTYRAIQLSYRIPMKMFRFD, the amyloid nucleation score was -0.3 ± 0.25.
As for KVCLRRAAYYRVLVHSCHFR, the figure is -0.585 ± 0.43; as for KVEVWRVLGNSVQRRFSKDQ, 0.353 ± 1.1.
The substance KVIRLIFRGY came in with an amyloid nucleation score of 0.871 ± 0.64.
Next, KVLWMSSHLYSATSCCVKRS: 1.82 ± 0.34; KWHTRENCFSFLYVYFLMFP: “inactive”; KWKVR: -0.068 ± 0.38.
KWTLTRLYVACRYNDHSRLS gave an amyloid nucleation score of 1.07 ± 0.39.
The substance KWVEIITLCMEIWNLYIVCE returned an amyloid nucleation score of -0.048 ± 0.92.
KWYERLCIRATLKATLGYFT yielded an amyloid nucleation score of 0.055 ± 0.69.
In the case of KYMFRARCKRMTFGYPG, the amyloid nucleation score is -1.58 ± 1.4.
As for KYRSCGNGIPLIISHLLVER, the figure is 0.317 ± 0.26; as for KYVIKCTSWVGAMTHSSSKA, 0.333 ± 0.24.
KYVIMLNLKSEL came in with an amyloid nucleation score of 3.4 ± 0.091.
Consider KYVSYQGQVDCSCKSVL, for which the amyloid nucleation score is -0.182 ± 0.45.
As to KYWLMSLLAVKPSSRDSYGQ, the amyloid nucleation score is -0.239 ± 0.28.
As for LACYDQPATSRSTAGSCPVP, the figure is 1.55 ± 0.7; as for LAEHHWYWAEMIWSRGHEFT, 0.158 ± 0.44.
As for LAILMMCLLWTDLAKVLCPH, the figure is -0.015 ± 0.69; as for LAPALRTETQICRRIHSVQL, 1.62 ± 0.26; as for LAVFRCAARYYWNSFCLSRT, 0.03 ± 0.21.
In the case of LAWCNY, the amyloid nucleation score turned out to be 0.765 ± 0.57.
LAWLFYGFEIKL came in with an amyloid nucleation score of 0.241 ± 0.9.
LAWLQCRAGETFITWRHQFY: the amyloid nucleation score is 0.544 ± 0.55.
LAWTMSQQIGETRRGAEMCT yielded an amyloid nucleation score of 0.106 ± 0.33.
As for LCAFMSYLSSIFSRYNCFYV, the figure is 0.268 ± 0.19; as for LCALG, -0.434 ± 1.2; as for LCALVRICFPMADYEGRGGC, 2.33 ± 0.14.
As for LCCYAVYGLCLMHTYNWGCD, the figure is 0.564 ± 0.73.
Regarding LCDLWQHFSSSNVTGGLRRN, the amyloid nucleation score is 0.966 ± 0.54.
LCITRT: the amyloid nucleation score is -0.521 ± 0.56.
In turn, LCLDVLSGLCYFYLQ yielded an amyloid nucleation score of 0.622 ± 0.59.
The substance LCMKFSAVFWELKRV showed an amyloid nucleation score of 0.498 ± 0.52.
As for LCMNCVIQSDKRSSLLCYER, the figure is -0.636 ± 1.2; as for LCNFDSGFGNYGLL, -0.17 ± 0.52.
Next, LCNPQYM: 1.38 ± 0.69.
The substance LCRMFRIVAVGYMDQRCRT came in with an amyloid nucleation score of 0.479 ± 0.49.
LCSIKNSLMECLWYDL registered an amyloid nucleation score of -0.177 ± 0.33.
Substance LDCAKTVVTGVVLGRQLCQN gave an amyloid nucleation score of 0.662 ± 0.39.
Turning to LDFKDSGLYLPYKGNYGSV, the amyloid nucleation score amounted to 0.378 ± 0.68.
As for LDGTAYVDFVVCLEGGTDVI, the amyloid nucleation score is -0.18 ± 0.37.
With LDGTGWYCCQYSGGLYSLCG, the amyloid nucleation score was -0.073 ± 0.31.
As for LDILMGGGHTEDCTLPGHLS, the figure is 0.307 ± 0.36; as for LDLGEV, 0.025 ± 0.36.
For the substance LDNLWYL, the amyloid nucleation score stood at 0.623 ± 0.88.
In turn, LDRKIK returned an amyloid nucleation score of 0.651 ± 0.39.
The substance LDRMFSVVRNNVTTSVLSEK gave an amyloid nucleation score of 0.234 ± 0.32.
In turn, LDTDFSPCRTAVLVAIMHRG registered an amyloid nucleation score of 0.415 ± 0.74.
Next, LDVFPNYASRCTWAVDASFL: -0.703 ± 2.1; LDVLLLLMDCSRYPKIKGGI: -0.012 ± 0.43.
LDVRAIRYILK: the amyloid nucleation score was -0.252 ± 1.4.
The substance LDVTSDFCTMI gave an amyloid nucleation score of 0.5 ± 0.38.
Substance LDYLTTRKANVHRGCVALML had an amyloid nucleation score of -1.27 ± 0.78.
Consider LDYPISVIVPGTDQSLEFLP, for which the amyloid nucleation score result was “inactive”.
LEDHVWKVVVYLSKNDVCMG: the amyloid nucleation score stood at 0.269 ± 0.67.
For LEGHNCADQLLSFLTSSYSL, the amyloid nucleation score was determined as 1.34 ± 0.44.
Next, LEGSNSFNLRNLQFALRGTL: 0.069 ± 0.45; LEHHCAHCIGEVTINIKRFP: 0.306 ± 0.41.
LELDRFDNFRYGSAPRCYLP: the amyloid nucleation score entry was “inactive”.
Regarding LELSKTISMPVSMNRFWVIR, the amyloid nucleation score is -1.39 ± 1.2.
For LESFWGSPA, the amyloid nucleation score is 0.445 ± 1.2.
Next, LFAPPYLLAVMEE: 0.97 ± 0.72.
As to LFCFNRVD, the amyloid nucleation score entry is “inactive”.
The substance LFFHSKYMQRLKL came in with an amyloid nucleation score of 0.183 ± 0.72.
As to LFFRIYDHCNEHEKCVV, the amyloid nucleation score result is “inactive”.
The substance LFFSYMQLVTNSTCTYLRVF yielded an amyloid nucleation score of 1.24 ± 0.74.
LFFVPMARVW gave an amyloid nucleation score of 0.01 ± 0.54.
In the case of LFIRYALSFESMWL, the amyloid nucleation score is 0.586 ± 0.52.
With LFKSQFEFFEVGSVEDEFFR, the amyloid nucleation score entry is “inactive”.
The substance LFLLEINVSSRIWPSFPKSY displayed an amyloid nucleation score of 0.257 ± 0.42.
Next, LFMFRLKYVIHWDIG: 0.911 ± 0.54; LFMGVRTKVNGSAVI: 0.183 ± 0.17.
Take LFVGWYYYSVFSFV: the amyloid nucleation score entry was “inactive”.
In turn, LFVLLQHLAATFYVQVLTSR had an amyloid nucleation score of -0.028 ± 0.89.
LFVNFGTLS: the amyloid nucleation score came out at 0.391 ± 0.41.
As for LFVTCPHLSTQ, the figure is 1.26 ± 0.69; as for LFWNFRRTGAGLAAGLVVGL, -0.885 ± 1.4; as for LFYVMWWMAGVGLRRGYWAN, “inactive”.
As to LGASGLGCIF, the amyloid nucleation score turned out to be 4.56 ± 0.055.
LGCLFNAGAFWAYGGMVSLH gave an amyloid nucleation score of -0.024 ± 0.57.
The substance LGCLQLITSERGPDYYKVAT gave an amyloid nucleation score of 0.218 ± 0.41.
LGDVSRYFCCIQGNNYRM showed an amyloid nucleation score of 5.51 ± 0.057.
LGFCTLFISMEDQLCVLQIL had an amyloid nucleation score of -0.546 ± 1.2.
Next, LGIVSCTSQNPNGVDTSIFG: 0.117 ± 1.4.
In turn, LGKRDFSGFSAKSQLFK yielded an amyloid nucleation score of -0.613 ± 0.27.
As for LGQLNFLMWYPKYECRIYMG, the figure is 6.656 ± 0.058.

Source of the values: the supplement of paper PMC12042874.
